From US20140274782A1, “AFFINITY REAGENTS AND METHODS FOR DETECTION, PURIFICATION, AND PROTEOMIC ANALYSIS OF METHYLATED PROTEINS” (The Board of Trustees of the Leland Stanford Junior …, priority 2013, published 2014)

B1: MCM4: protein with methylated lysine identified in 3xMBT pull-down (protein, UniProt P33991 2-863, looked up)
DNA replication licensing …: SSPASTPSRRGSRRGRATPAQTPRSEDARSSPSQRRRGEDSTSTGELQPMPTSPGVDLQSPAAQDVLFSSPPQMHSSAIPLDFDVSSPLTYGTPSSRVEGTPRSGVRGTPVRQRPDLGSAQKGLQVDLQSDGAAAEDIVASEQSLGQKLVIWGTDVNVAACKENFQRFLQRFIDPLAKEEENVGIDITEPLYMQRLGEINVIGEPFLNVNCEHIKSFDKNLYRQLISYPQEVIPTFDMAVNEIFFDRYPDSILEHQIQVRPFNALKTKNMRNLNPEDIDQLITISGMVIRTSQLIPEMQEAFFQCQVCAHTTRVEMDRGRIAEPSVCGRCHTTHSMALIHNRSLFSDKQMIKLQESPEDMPAGQTPHTVILFAHNDLVDKVQPGDRVNVTGIYRAVPIRVNPRVSNVKSVYKTHIDVIHYRKTDAKRLHGLDEEAEQKLFSEKRVELLKELSRKPDIYERLASALAPSIYEHEDIKKGILLQLFGGTRKDFSHTGRGKFRAEINILLCGDPGTSKSQLLQYVYNLVPRGQYTSGKGSSAVGLTAYVMKDPETRQLVLQTGALVLSDNGICCIDEFDKMNESTRSVLHEVMEQQTLSIAKAGIICQLNARTSVLAAANPIESQWNPKKTTIENIQLPHTLLSRFDLIFLLLDPQDEAYDRRLAHHLVALYYQSEEQAEEELLDMAVLKDYIAYAHSTIMPRLSEEASQALIEAYVDMRKIGSSRGMVSAYPRQLESLIRLAEAHAKVRLSNKVEAIDVEEAKRLHREALKQSATDPRTGIVDISILTTGMSATSRKRKEELAEALKKLILSKGKTPALKYQQLFEDIRGQSDIAITKDMFEEALRALADDDFLTVTGKTVRLL
modifications: methylated lysine
notes: protein with methylated lysine identified in 3xMBT pull-down
B2: NHP2L1: protein with methylated lysine identified in 3xMBT pull-down (protein, UniProt P55769 1-128, looked up)
NHP2-like protein 1: MTEADVNPKAYPLADAHLTKKLLDLVQQSCNYKQLRKGANEATKTLNRGISEFIVMAADAEPLEIILHLPLLCEDKNVPYVFVRSKQALGRACGVSRPVIACSVTIKEGSQLKQQIQSIQQSIERLLV
B3: SCML2: protein with methylated lysine identified in 3xMBT pull-down (protein, UniProt Q9UQR0 1-700, looked up)
Sex comb on midleg-like …: MGQTVNEDSMDVKKENQEKTPQSSTSSVQRDDFHWEEYLKETGSISAPSECFRQSQIPPVNDFKVGMKLEARDPRNATSVCIATVIGITGARLRLRLDGSDNRNDFWRLVDSPDIQPVGTCEKEGDLLQPPLGYQMNTSSWPMFLLKTLNGSEMASATLFKKEPPKPPLNNFKVGMKLEAIDKKNPYLICPATIGDVKGDEVHITFDGWSGAFDYWCKYDSRDIFPAGWCRLTGDVLQPPGTSVPIVKNIAKTESSPSEASQHSMQSPQKTTLILPTQQVRRSSRIKPPGPTAVPKRSSSVKNITPRKKGPNSGKKEKPLPVICSTSAASLKSLTRDRGMLYKDVASGPCKIVMSTVCVYVNKHGNFGPHLDPKRIQQLPDHFGPGPVNVVLRRIVQACVDCALETKTVFGYLKPDNRGGEVITASFDGETHSIQLPPVNSASFALRFLENFCHSLQCDNLLSSQPFSSSRGHTHSSAEHDKNQSAKEDVTERQSTKRSPQQTVPYVVPLSPKLPKTKEYASEGEPLFAGGSAIPKEENLSEDSKSSSLNSGNYLNPACRNPMYIHTSVSQDFSRSVPGTTSSPLVGDISPKSSPHEVKFQMQRKSEAPSYIAVPDPSVLKQGFSKDPSTWSVDEVIQFMKHTDPQISGPLADLFRQHEIDGKALFLLKSDVMMKYMGLKLGPALKLCYYIEKLKEGKYS

Tests used:
[1] = test system: 3×MBT domain of L3MBTL1; assay: SILAC proteomic pull-down 3×MBT vs 3×MBTD355N from 293T nuclear extract, LC-MS/MS; format: binding, human; conditions: SILAC ratio, 293T nuclear extract pull-down; * = protein identified in only one labeling experiment
Experimental: Protein pull-downs were performed as described above using 600 μg of nuclear extract prepared with isotopic labels as indicated. After eluting with glutathione, 3×MBT domain was removed by dialysis into high salt and rebinding to GSH-sepharose. Bound proteins were separated by SDS-PAGE and analyzed by in-gel tryptic digest followed by LC-MS/MS. Peptides were identified using MaxQuant version 1.2.2.5 (Cox and Mann (2008) Nat. Biotechnol. 26, 1367-1372) and candidate methylated peptides were verified by manual inspection.
For stable isotope labeling by amino acids in cell culture (SILAC) experiments HEK 293T cells were grown for at least six doublings in DMEM for SILAC supplemented with 10% dialyzed fetal bovine serum (FBS), 230 mg/L L-proline and either 100 mg/L each of L-lysine and L-arginine (“light” medium), D4-L-lysine and ^13C6-L-arginine (“medium” media), or ^13C6^15N2-L-lysine and ^13C6^15N4-L-arginine (Thermo Scientific). Heavy methyl labeling used DMEM without L-Methionine or L-Cysteine supplemented with D3^13C-L-Methionine (Sigma), L-Cysteine (Sigma) and 10% dialyzed FBS.
600 μg of nuclear extract was incubated overnight rotating at 4° C. with 20 μl packed 3×MBT or 3×MBTD355N beads in a total volume of 250 μL with binding buffer. Supernatant was removed and saved for use as a loading control. Beads were washed 4×5 minutes with 0.5 mL binding buffer. Protein was eluted by incubating in 20 μL elution buffer (10 mg/mL glutathione in 50 mM Tris pH 8.0) rotating at 4° C. for four hours. Elutions from 3×MBT and 3×MBTD355N were combined and dialyzed overnight at 4° C. against 10,000× volume of dissociation buffer (50 mM Tris pH 7.5, 750 mM NaCl) in a 0.1 mL Slide-A-Lyzer MINI Dialysis Device with 3.5K molecular weight cutoff (Thermo Scientific). 80 μL of GSH-Sepharose was prepared by washing briefly three times with 0.5 mL binding buffer. Dialyzed proteins were added to the GSH-Sepharose and incubated 4 hours rotating at 4° C. to deplete the GST-fusion domains. Supernatant was transferred to a fresh 1.5 mL tube. Proteins were separated by SDS-PAGE on a 10% polyacrylamide gel and stained using SilverQuest Silver Staining Kit (Life Technologies). Lanes were excised, residual 3×MBT band was removed, and gel was diced into 0.5 mm cubes. Gel pieces were destained and processed by in-gel digestion (Carlson et al. (2011) Science Signaling 4) with sequencing grade trypsin (Promega) and the peptide sample was dried completely in a vacuum centrifuge. To prepare a loading control, 2 μL each of light and heavy nuclear extract were combined, 6 μL of 8M urea was added, proteins were denatured by adding 2 μL of 100 mM dithiothreitol in digest buffer (50 mM ammonium bicarbonate) and heating to 60° C. for 1 hour, cysteine was alkylated by adding 2.2 μL 100 mg/mL iodoacetamide in digest buffer and incubating 1 hour at room temperature in darkness, and proteins were digested by adding 80 μL trypsin (Promega) at 12.5 ng/μL in digest buffer and incubating overnight at room temperature in darkness. Digestion was stopped by adding 10 μL of 10% formic acid.
Each experiment consisted of two sets of pull-downs: “forward” labeling with 3×MBT incubated with light nuclear extract and 3×MBTD355N with medium extract, and a second “reverse” labeling experiment with the label conditions swapped. Proteins were included in the results if they were quantified in both labeling directions. To determine reproducibility the entire experiment including the label swap was duplicated using independent protein preparations and a mass spectrometer at another institution.
For 3×MBT pull-down experiment #1 the gel lane was processed and peptides were loaded off-line onto a first dimension trap column (Waters Xbridge, C18, 10 μm particle size, 100 Å pore size, 5 cm packing length, 150 μm column i.d.). […]

[2] = test system: 3×MBT domain of L3MBTL1; assay: Triple SILAC pull-down, 3xMBT/3xMBTD355N ratio (cytoplasmic, nuclear and chromatin fractions of 293T cells); format: binding, human; conditions: for 3xMBT/D355N UNC Heavy: experiment with UNC0638 in heavy SILAC media; for 3xMBT/D355N UNC Light: experiment with UNC0638 in light SILAC media;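 as to all read-outs here: proteins quantified with MaxQuant, requiring at least two unique peptides and quantification in both label directions, normalized to the mean of proteins from a digested loading control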
[3] = SILAC ratio, pull-down 3xMBT vs 3xMBTD355N
[4] = SILAC ratio 3xMBT vs 3xMBTD355N pull-down, 293T cells, all values in log base 2

| Molecule | Protein Ratio 3xMBT/D355N [1] | 3xMBT/D355N UNC Heavy [2, 3] [log base 2] | 3xMBT/D355N UNC Light [2, 3] [log base 2] | 3xMBT/D355N UNC Heavy [2, 4] [log base 2] | 3xMBT/D355N UNC Light [2, 4] [log base 2] |
| --- | --- | --- | --- | --- | --- |
| B1 | 6.6 | 1.92 | 2.16 | – | – |
| B2 | 4.4* | 1.56 | 3.46 | – | – |
| B3 | 1.7 | – | – | 1.39 | 1.28 |
